Experimental data taken from PMC11539623 (Biochimica et biophysica acta. Gene regulatory mechanisms, 2023).

Biological target: T1, His-tagged full length Taf14 (S. cerevisiae, UniProt P35189 1-244, labeled with His-Tag Labeling Kit RED-tris-NTA (2nd Generation))
T1 sequence (looked up): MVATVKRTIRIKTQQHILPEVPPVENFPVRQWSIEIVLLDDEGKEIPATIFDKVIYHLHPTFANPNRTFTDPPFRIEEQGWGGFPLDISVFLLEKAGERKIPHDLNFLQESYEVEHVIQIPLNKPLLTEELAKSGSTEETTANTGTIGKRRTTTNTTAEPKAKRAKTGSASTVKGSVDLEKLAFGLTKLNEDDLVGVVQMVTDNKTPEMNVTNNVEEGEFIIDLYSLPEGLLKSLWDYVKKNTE
Assay: MST

fold weaker binding than the isolated Taf14ET: 7 fold
Binder: GHSLLLSIKLPG (peptide, UniProt P18480 782-793, looked up) [Snf5 ET domain binding motif peptide (aa 782-793)]
